In US20150064174A1 (BRIGHAM AND WOMEN S HOSPITAL, published 2015):

Target: T1, Epstein-Barr virus (EBV)-encoded glycoprotein 350 (gp350) (Epstein-Barr virus, UniProt P03200 1-860)
T1 construct: also called EBV gp350; column-purified EBV gp350 protein
T1 sequence: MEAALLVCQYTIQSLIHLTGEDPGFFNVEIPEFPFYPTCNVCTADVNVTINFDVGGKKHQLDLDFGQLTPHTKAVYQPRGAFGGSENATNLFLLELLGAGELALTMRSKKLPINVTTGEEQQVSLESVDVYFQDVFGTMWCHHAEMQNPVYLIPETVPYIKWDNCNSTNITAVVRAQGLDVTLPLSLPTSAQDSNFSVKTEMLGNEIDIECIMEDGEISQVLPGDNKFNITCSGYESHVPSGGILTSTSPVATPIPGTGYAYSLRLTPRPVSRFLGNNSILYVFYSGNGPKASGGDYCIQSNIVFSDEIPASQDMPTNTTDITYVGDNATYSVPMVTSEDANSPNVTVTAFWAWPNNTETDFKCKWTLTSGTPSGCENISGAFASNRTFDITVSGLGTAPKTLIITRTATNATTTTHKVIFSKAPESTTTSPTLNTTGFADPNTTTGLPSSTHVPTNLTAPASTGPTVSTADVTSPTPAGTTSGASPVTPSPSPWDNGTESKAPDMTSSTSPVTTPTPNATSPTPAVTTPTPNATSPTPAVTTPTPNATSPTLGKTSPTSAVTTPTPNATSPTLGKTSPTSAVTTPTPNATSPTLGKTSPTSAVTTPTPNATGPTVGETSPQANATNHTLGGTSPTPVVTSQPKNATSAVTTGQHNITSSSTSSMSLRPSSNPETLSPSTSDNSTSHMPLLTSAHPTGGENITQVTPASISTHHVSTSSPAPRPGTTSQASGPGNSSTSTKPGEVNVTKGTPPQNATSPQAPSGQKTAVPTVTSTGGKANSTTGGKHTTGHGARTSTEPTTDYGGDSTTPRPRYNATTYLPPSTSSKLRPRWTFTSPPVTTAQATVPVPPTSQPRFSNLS
Assay: ELISA, plate-coated purified gp350, HEK293T supernatant, anti-human IgG-HRP

B1: recombinant humanized (chimeric) 72A1 antibody, heavy chain 2 and lambda light chain (Vh2+L) (antibody, V domains shown)
VH: DVQLVESGGGLVQPGGSRKLSCAASGFTFSSFGMHWVRQAPEKGLEWVAYISSGSSTLHYADTVKGRFTISRDNPKNTLFLQMTSLRSEDTAMYYCARWGNYPHYAMDYWGQGTSVTVSS
VL: QAVLTQESALTTSPGETVTLTCRSSTGAVTTSNYANWVQEKPDHLFTGLIGGTNNRVPGVPARFSGSLIGDKAALTITGAQTEDEAIYFCVLWHSNHWVFGGGTKLTVL
notes: Murine variable regions on human IgG1 (pCIRN) and human IgK (pEIG) constant regions; HEK293T supernatant
binding result: no binding (tested: supernatant diluted 1:2)
